# Assay results from the supplement of paper PMC12042874.
# ± gives the uncertainty stated by the source.
# Assay: amyloid nucleation score (Sup35N fusion, yeast selection) (log enrichment); library NNK3; higher = more nucleation; inactive = no reads after selection
# Summary of the method: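 DiMSum was used to calculate nucleation scores as log enrichment of output over input reads, centred on the mode score of non-aggregating sequences. Sequences with fewer than 100 input reads were not scored. Input and output came from Illumina sequencing of plasmid inserts in psi-negative yeast expressing peptides of 20 random codons fused to Sup35N, induced 24 hours with 100 μM copper sulfate and then grown 7 days at 30°C on medium lacking adenine and uracil.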
row,Substance,amyloid nucleation score
1,LRQVNQWVDVKASDPNGTAL,inactive
2,LRRFWDRIPCFCLFHRFSFY,inactive
3,LRRYALGLSYCLEVK,inactive
4,LRVCTELRMVLDISYNVGNF,0.68 ± 0.18
5,LRVRFTISWL,-0.471 ± 0.41
6,LRWCGSVFLFGGCRGTVVSW,inactive
7,LRWFAFSKSNIALGL,inactive
8,LSAATYPL,inactive
9,LSAMLDTDAYRGLW,inactive
10,LSCCSSGGGSTPVIAPTYYE,inactive
11,LSCVRRSSLDSC,inactive
12,LSCWNIRGWLRWS,inactive
13,LSDMNVNKRMCCMVRDSNMR,inactive
14,LSESYDRQRFKSTF,0.694 ± 0.21
15,LSEWI,inactive
16,LSFTEY,inactive
17,LSFYISPS,0.748 ± 0.1
18,LSGDLVCRKVFTRRCTSKWL,inactive
19,LSGFDFAL,inactive
20,LSGVSWKLCVYCFTVRGAAL,0.863 ± 0.22
21,LSHPTPQSCRHFVFNLKLSA,inactive
22,LSLDLSPSNLNPRWFDTPFH,inactive
23,LSLFSRSASFSSSLHMAMYH,inactive
24,LSLNLRYHQPVNWNSRDTCL,1.31 ± 0.12

row,Substance,amyloid nucleation score
1,LSLNLSLNMKVKLYVYWGYR,inactive
2,LSLSM,inactive
3,LSLSRRGYQLLLEASGRCYV,inactive
4,LSNTRLRNMFSRDRGASLEG,inactive
5,LSPARQLTLLGDKNPANNIL,inactive
6,LSPYRYSCYPYPTYSRYP,0.44 ± 0.24
7,LSRMTRESKPQEISAQARLD,1.14 ± 0.13
8,LSSCKLSYSKQLSRTVNQL,inactive
9,LSSDNCTFPFHRLGGYKQSY,inactive
10,LSSFLLFLAELCWVLKQRMC,inactive
11,LSSGG,0.088 ± 0.4
12,LSSWTNLLIWSLNLCPVMFV,inactive
13,LSTCFTGAFRVSNREKSNVS,0.059 ± 0.43
14,LSTSL,inactive
15,LSTYPDI,inactive
16,LSVFDMGIRKM,inactive
17,LSVLWYSWWGFNTG,inactive
18,LSWIWNLANSVKDNMGGMRM,inactive
19,LSYESCFGSHVGMRAEGCSR,-0.485 ± 1.2
20,LSYFSLFYADGRHFRCLLDN,inactive
21,LSYLC,inactive
22,LSYVRCVRWWY,inactive
23,LTLISGIAFLCLLLDNHNTV,inactive
24,LTPSECMENYRGFSDMRRCP,inactive

row,Substance,amyloid nucleation score
1,LTYHWNVVQLTLGNCFSGWG,2.55 ± 0.059
2,LVASSRW,inactive
3,LVDAVHLCSNVNYTFCTNAG,1.3 ± 0.074
4,LVESDLYVCTTVRGQVSMKG,inactive
5,LVGMDTGIVNDSIDGPGYWV,inactive
6,LVHLEVGQGSSVVEHLRCVL,inactive
7,LVIGVYWDRSPLVSSPFPLN,inactive
8,LVLDINTFTDIGSRKRWSHG,inactive
9,LVLTSPFRYSIV,inactive
10,LVLVSTFMHVGDVCYHMYY,2.99 ± 0.057
11,LVNEKNIRVEVCIAYACQDS,-0.053 ± 0.33
12,LVNMHLSLSYGDLSRRQFVN,inactive
13,LVNTCKNSFLVVLHF,2.09 ± 0.065
14,LVPFLVDIHVGWDISLKVVR,inactive
15,LVQIPYTDDVRLKGMINP,inactive
16,LVRLGMQRCRPLT,inactive
17,LVSVVYLEGTGGDYDFFIAT,2.01 ± 0.079
18,LVTDGMRRSEICLMVYSN,inactive
19,LVTETLFYCH,inactive
20,LVTGNVYVF,inactive
21,LVVCGVRWSMFIGIS,inactive
22,LVWVKLAANAFVV,1.4 ± 0.074
23,LVYCFAYRVVHSNCHLESC,inactive
24,LVYLQDLQLSSMLDFHSCM,inactive

row,Substance,amyloid nucleation score
1,LWAIMFRYSDIAKLTGWRVV,-0.069 ± 0.82
2,LWDRHNCWGDEASFPSRPTY,inactive
3,LWDWVYFAYDRVYLVLCSSC,inactive
4,LWFCLFPPWITSCPFRLCRA,inactive
5,LWGAYLLNCGNMRYCMYISG,0.803 ± 0.2
6,LWIPLWNVRKVYIIGQCLT,inactive
7,LWKLSSNSYWFVSCNGLKYS,inactive
8,LWKRCRNNEAFVLMVGRRQA,inactive
9,LWLIPC,inactive
10,LWQDMRLLSGLL,inactive
11,LWSLHMESDWGVRIHSRSLI,inactive
12,LWTVNRECM,inactive
13,LWYVDTGAIILG,inactive
14,LYAWPHRTIVVVWLRILLFR,inactive
15,LYCECYSSLLCYGRLPAKTR,inactive
16,LYDDVSTVWNKKTEVGQLLN,inactive
17,LYEDYISSSMSMLLRLLSSY,inactive
18,LYFACPTLYLFRRRVNVTHP,inactive
19,LYHRAIGRSRQRENPSQKGG,-0.048 ± 0.39
20,LYICTIVYYGQSNRYMFAGQ,inactive
21,LYLFTPVWDFNCLPFGLAYK,inactive
22,LYLPGKIY,inactive
23,LYMGSRPFSVIVVRITVGSQ,inactive
24,LYMVINYMKCVARHGTQNDR,inactive

row,Substance,amyloid nucleation score
1,LYPFSGESQA,inactive
2,LYRRVHVMGPVSHLDKLERC,inactive
3,LYRWHNLFGYTNVSSIQKYG,inactive
4,LYSAAVVNGGLCDRL,inactive
5,LYSAGLNEFLL,inactive
6,LYSSNQLFDGGMSFWNDNII,inactive
7,LYSVSAAMDTIKPLFPRGNA,inactive
8,LYVFYCVTHLHSIGPGQCLR,inactive
9,LYVSCWFDLRPSTFYLGSEF,2.48 ± 0.054
10,LYYRGLRQRLTPKLGRFRLC,inactive
11,MAFYQHDILTMFLYRFRDAR,inactive
12,MAGCAMRVRSYMGMKSHSEC,-0.353 ± 0.74
13,MALLPGVAGTSYK,-0.435 ± 1.3
14,MAPVGL,inactive
15,MASVSREAVQYNAWESMAIY,inactive
16,MCFNYCGVWASYLNRSVSFI,inactive
17,MCLVFKTEIRGLKAFCMCSF,inactive
18,MCMSVCFSK,inactive
19,MCRSNFAWSPSHK,inactive
20,MCSGAAFMRRVC,inactive
21,MCVRPLPSRLGTVGLWN,inactive
